Laboratory results taken from patent publication US20160311934A1, “HYDROXYALKYL STARCH DERIVATIVES AS REACTANTS FOR COUPLING TO THIOL GROUPS” (FRESENIUS KABI DEUTSCHLAND GMBH, priority 2013, published 2016).

T1: Interleukin 1 receptor type I (Homo sapiens, UniProt P14778)
T1 construct: purchased R&D Systems
T1 sequence (P14778 18-569): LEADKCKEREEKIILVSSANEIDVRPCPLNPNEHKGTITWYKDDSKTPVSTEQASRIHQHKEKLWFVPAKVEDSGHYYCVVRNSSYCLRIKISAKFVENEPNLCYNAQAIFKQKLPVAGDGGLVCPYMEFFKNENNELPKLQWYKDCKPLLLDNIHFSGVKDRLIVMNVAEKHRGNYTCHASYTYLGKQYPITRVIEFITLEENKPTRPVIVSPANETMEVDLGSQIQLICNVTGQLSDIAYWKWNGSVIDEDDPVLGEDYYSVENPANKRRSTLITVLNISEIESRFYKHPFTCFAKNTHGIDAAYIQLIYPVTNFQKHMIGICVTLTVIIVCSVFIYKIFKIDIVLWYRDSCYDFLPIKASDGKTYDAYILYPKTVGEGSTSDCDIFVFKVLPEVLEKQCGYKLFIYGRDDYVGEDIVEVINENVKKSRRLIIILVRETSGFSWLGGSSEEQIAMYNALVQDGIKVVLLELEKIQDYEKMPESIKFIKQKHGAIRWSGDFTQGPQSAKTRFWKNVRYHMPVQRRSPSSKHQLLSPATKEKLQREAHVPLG


Legend:
[1] = biological target: T1, Interleukin 1 receptor type I; assay: SPR binding affinity on a BIAcore system; conditions: immobilized receptor on CM3 chip, 1:1 binding stoichiometry
Protocol: Conjugates of L12-HES with IL1RA were tested for binding affinity to its natural binding partner using SPR on a BIAcore system. Interleukin 1 receptor type I (R&D Systems) was immobilized on the chip surface and the kinetic binding parameters were determined for the conjugate in comparison to the unmodified protein (chip: CM3, immobilization: 950 RU, flow rate 30 μl/min, association 180 s, dissociation 900 s, regeneration: 6 s with 5 mM glycine buffer, pH 2.0). The curves were analyzed by assuming a 1:1 binding stoichiometry.

[2] = tested on: peptidyl prolyl bonds; assay: Prolyl isomerase activity assay; type: biochemical
Protocol: Prolylisomerases like SlyD catalyze the trans to cis isomerization of peptidyl prolyl bonds. The prolyl isomerase activities of SlyD and the L12-HES-SlyD conjugate were measured by a prolyl isomerase activity assay according to Zoldak et al. (2009, Biochemistry, 48, 10423-10436). The rate constant of the cis to trans isomerization of the prolyl bond was determined using Origin 8.1. […] The catalytic activity of unmodified SlyD is 5.6·10^6 M^−1s^−1 and the activity of the L12-HES-SlyD conjugate is 6.0·10^6 M^−1s^−1 (107% of the activity of unconjugated SlyD). The higher activity of the conjugate compared to unmodified SlyD is within the error of the assay.

[3] = Stability tests of HES-protein conjugates at different pH, 40° C., 20 days; type: physicochemical; conditions: protein conjugate 1 mg/ml
Protocol: For stability tests at pH 4.0, 5.5, 7.0 and 8.0, the conjugates were diluted into final buffer conditions of 20 mM acetate (pH 4.0 and 5.5) or 10 mM phosphate (pH 7.0 and 8.0), 0.5 mM ETDA, 154 mM NaCl to a final concentration of 1 mg/ml. The conjugates were stored at 40° C. for 20 days and analyzed by RP-HPLC (example for Ubi is shown in FIG. 3), SEC (as described in example C1) or SDS-PAGE (as described in example C1).

Molecule | association rate ka [1] [M⁻¹ s⁻¹] | catalytic activity (prolyl isomerization) [2] [M⁻¹ s⁻¹] | also measured
IL1RA that is conjugated to HES via N-terminal coupling: IL1RA that is conjugated to HES via N-terminal coupling | 263000 | – | –
unmodified IL1RA: interleukin-1 receptor antagonist (Kineret®), unconjugated | 588000 | – | –
unmodified SlyD: SlyD D101C, sensitive to lysis protein D, a prolylisomerase, unconjugated (protein, UniProt P0A9K9 1-196, looked up, variant D101C) FKBP-type peptidyl-prolyl …: MKVAKDLVVSLAYQVRTEDGVLVDESPVSAPLDYLHGHGSLISGLETALEGHEVGDKFDVAVGANDAYGQYDENLVQRVPKDVFMGVDELQVGMRFLAETCQGPVPVEITAVEDDHVVVDGNHMLAGQNLKFNVEVVAIREATEEELAHGHVHGAHDHHHDHDHDGCCGGHGHDHGHEHGGEGCCGGKGNGGCGCH | – | 5.6e+06 | –
L12 X12 SlyD (conjugate, UniProt P0A9K9 1-196, looked up, HES X12 via linker L12) FKBP-type peptidyl-prolyl …: MKVAKDLVVSLAYQVRTEDGVLVDESPVSAPLDYLHGHGSLISGLETALEGHEVGDKFDVAVGANDAYGQYDENLVQRVPKDVFMGVDELQVGMRFLAETDQGPVPVEITAVEDDHVVVDGNHMLAGQNLKFNVEVVAIREATEEELAHGHVHGAHDHHHDHDHDGCCGGHGHDHGHEHGGEGCCGGKGNGGCGCH | – | 6e+06 | % of the activity of unconjugated SlyD ([2]; relative to unconjugated SlyD): 107%; conjugate degradation after 20 days (%) pH 7.0 ([3]; 10 mM phosphate pH 7.0, 40° C.): 3.4%; conjugate degradation after 20 days (%) pH 8.0 ([3]; 10 mM phosphate pH 8.0, 40° C.): 9.0%; conjugate degradation after 20 days (%) pH 5.5 ([3]; 20 mM acetate pH 5.5, 40° C.): 1.4%
